Reference: paper PMC9728202, “Molecular and Enzymatic Features of Homoserine Dehydrogenase from Bacillus subtilis” (Journal of Microbiology and Biotechnology, 2020)

Legend:
[1] = target: the molecule itself; assay: SEC; Superdex-200 10/300 GL, 20 mM Tris-HCl pH 8.0, 0.1 mM TCEP, 400 mM NaCl, 0.5 mL/min; mass from a standard curve of standard proteins
[2] = substrate: N[C@@H](CCO)C(=O)O; assay: purified protein; assay type: biochemical, Bacillus subtilis; settings: oxidation, 2 mM NADP+, pH 9.0, 400 mM NaCl, 25°C, apparent
[3] = substrate: NC(=O)c1ccc[n+]([C@@H]2O[C@H](COP(=O)(O)OP(=O)(O)OC[C@H]3O[C@@H](n4cnc5c(N)ncnc54)[C@H](OP(=O)(O)O)[C@@H]3O)[C@@H](O)[C@H]2O)c1; assay: purified protein; assay type: biochemical, Bacillus subtilis; settings: oxidation, 100 mM L-homoserine, pH 9.0, 400 mM NaCl, 25°C, apparent, varied: cofactor

B1: Homoserine dehydrogenase from Bacillus subtilis (enzyme, Bacillus subtilis strain 168, UniProt P19582 1-433, looked up)
chain: MKAIRVGLLGLGTVGSGVVKIIQDHQDKLMHQVGCPVTIKKVLVKDLEKKREVDLPKEVLTTEVYDVIDDPDVDVVIEVIGGVEQTKQYLVDALRSKKHVVTANKDLMAVYGSELLAEAKENGCDIYFEASVAGGIPILRTLEEGLSSDRITKMMGIVNGTTNFILTKMIKEKSPYEEVLKEAQDLGFAEADPTSDVEGLDAARKMAILARLGFSMNVDLEDVKVKGISQITDEDISFSKRLGYTMKLIGIAQRDGSKIEVSVQPTLLPDHHPLSAVHNEFNAVYVYGEAVGETMFYGPGAGSMPTATSVVSDLVAVMKNMRLGVTGNSFVGPQYEKNMKSPSDIYAQQFLRIHVKDEVGSFSKITSVFSERGVSFEKILQLPIKGHDELAEIVIVTHHTSEADFSDILQNLNDLEVVQEVKSTYRVEGNGWS
notes: Homoserine dehydrogenase (gene hom) of Bacillus subtilis strain 168, 433 amino acid residues; Calculated mass of the monomer printed as 48.3 kDa; Surmised: cloning through XhoI into pET26b adds Leu-Glu before the His6 tag; no removal of the tag is told; also called BsHSD; HSD; source: E. coli Rosetta2 (DE3), purified (HisTrapFF, HiPrep 26/10 Desalting, Superdex-200)
- stoichiometry N [1]: 4
- Km [2]: 35.08 ± 2.91 mM
- Vmax [2]: 2.72 µmol/min/mg
- kcat [2]: 1.07 ± 0.02 s⁻¹
- kcat/Km [2]: 30 ± 10 M⁻¹ s⁻¹
- Km [3]: 0.39 ± 0.05 mM
- Vmax [3]: 2.79 µmol/min/mg
- kcat [3]: 1.1 ± 0.04 s⁻¹
- kcat/Km [3]: 2860 ± 910 M⁻¹ s⁻¹
